Measured values as given in the supplement of paper PMC10126150.
± gives the standard deviation of the averaged measurements.

System: ATP
Assay: switch fluorescence ratio, 500 uM ATP over buffer (Cy3 cluster intensity, sum of 5 cycles each) (fold (ratio)); higher = stronger signal-on switching upon ATP binding; sequences stand for … in TCGTCGGCAGCGTCAGATGTGTATAAGAGACAGTTTTTTTTTTTTTTTTTTTTTTTTT…TC
Conditions: aptamer strand: ATP DNA aptamer (quencher-CACCTGGGGGAGTATTGCGGAGGAAGG + anchor), 100 nM annealed; ATP concentration: 500 uM
Method in brief: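 Values give the fluorescence ratio for each switch-domain sequence, averaged from per-cluster ratios of summed target-cycle to summed buffer-cycle Cy3 intensity. The Cy3-labelled switching-strand clusters sat on a modified Illumina MiSeq flow-cell, were annealed to 100 nM quencher-labelled ATP aptamer, and were imaged in selection buffer, then after 15 min with 500 uM ATP at 22 °C. Five cycles ran with NaOH stripping and re-annealing between them, and clusters outside 100-1000 RFU were excluded.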
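Also: ATP exposure 15 min at 22 °C before imaging.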

| Sequence | switch fluorescence ratio |
| --- | --- |
| GGTGAATGGC | 1.03 ± 0.017 |
| GGTGACACTT | 0.996 ± 0.033 |
| GGTGACGATT | 0.9712 ± 0.0065 |
| GGTGACGCTG | 0.992 ± 0.031 |
| GGTGACTGGG | 0.903 ± 0.042 |
| GGTGAGCTAG | 0.9866 ± 0.0034 |
| GGTGATAGTG | 0.983 ± 0.024 |
| GGTGATGAAA | 0.998 ± 0.025 |
| GGTGATGGTT | 0.986 ± 0.047 |
| GGTGATGTGG | 0.986 ± 0.022 |
| GGTGATTGAC | 1.18 ± 0.3 |
| GGTGCAATGA | 1.956 ± 0.0021 |
| GGTGCAGCTG | 0.981 ± 0.016 |
| GGTGCAGGAG | 0.999 ± 0.035 |
| GGTGCATATA | 1.05 ± 0.032 |
| GGTGCGCATA | 1.03 ± 0.019 |
| GGTGCGCATG | 0.994 ± 0.011 |
| GGTGCTAGAA | 0.9789 ± 0.0083 |
| GGTGCTAGTG | 0.999 ± 0.015 |
| GGTGCTGTGT | 1.01 ± 0.039 |
| GGTGGAAAAG | 1 ± 0.023 |
| GGTGGCGGAT | 1.07 ± 0.033 |

| Sequence | switch fluorescence ratio |
| --- | --- |
| GGTGGCGTTA | 0.999 ± 0.016 |
| GGTGGCTTTT | 1.02 ± 0.099 |
| GGTGGGATGA | 0.965 ± 0.015 |
| GGTGGGCGGA | 1.01 ± 0.029 |
| GGTGGGGAAC | 1.03 ± 0.068 |
| GGTGGGGAAT | 0.979 ± 0.022 |
| GGTGGGGATG | 0.984 ± 0.027 |
| GGTGGGGCTT | 0.998 ± 0.025 |
| GGTGGGGGTG | 0.998 ± 0.031 |
| GGTGTAATAG | 1.04 ± 0.036 |
| GGTGTAGAAC | 1 ± 0.049 |
| GGTGTAGCGA | 1.03 ± 0.026 |
| GGTGTAGGCA | 0.987 ± 0.03 |
| GGTGTAGGGA | 0.992 ± 0.013 |
| GGTGTAGGGG | 1.04 ± 0.074 |
| GGTGTAGTTG | 0.999 ± 0.037 |
| GGTGTATAAA | 0.967 ± 0.054 |
| GGTGTATAGG | 1.01 ± 0.011 |
| GGTGTATGAA | 0.994 ± 0.029 |
| GGTGTCCGGT | 0.998 ± 0.03 |
| GGTGTCGGGT | 0.99 ± 0.012 |
| GGTGTCTGGG | 0.984 ± 0.074 |

| Sequence | switch fluorescence ratio |
| --- | --- |
| GGTGTCTGGT | 1.001 ± 0.0061 |
| GGTGTCTTAC | 1.01 ± 0.029 |
| GGTGTGACCA | 1.02 ± 0.015 |
| GGTGTGCCAA | 1 ± 0.022 |
| GGTGTGCGGA | 1.02 ± 0.024 |
| GGTGTGCGTC | 1 ± 0.026 |
| GGTGTGGCTA | 0.989 ± 0.012 |
| GGTGTGGGGC | 1.01 ± 0.024 |
| GGTGTGGTGC | 1.02 ± 0.012 |
| GGTGTGTACG | 1.28 ± 0.41 |
| GGTGTGTGCT | 0.989 ± 0.049 |
| GGTGTGTGTC | 1.02 ± 0.02 |
| GGTGTGTTTT | 0.981 ± 0.048 |
| GGTGTTAATT | 0.9888 ± 0.0093 |
| GGTGTTAGTG | 0.977 ± 0.023 |
| GGTGTTATAT | 1.02 ± 0.04 |
| GGTGTTGATC | 1.03 ± 0.025 |
| GGTGTTTCGC | 0.994 ± 0.0095 |
| GGTGTTTCGG | 0.966 ± 0.014 |
| GGTGTTTGAC | 0.999 ± 0.011 |
| GGTGTTTTCG | 0.998 ± 0.03 |
| GGTTAAAGAA | 1.004 ± 0.0082 |

| Sequence | switch fluorescence ratio |
| --- | --- |
| GGTTAATAGG | 0.99 ± 0.013 |
| GGTTACAATT | 0.982 ± 0.032 |
| GGTTACACTG | 1.03 ± 0.025 |
| GGTTACTAAG | 1.01 ± 0.017 |
| GGTTAGAAAT | 0.98 ± 0.016 |
| GGTTAGAGTA | 1.01 ± 0.025 |
| GGTTAGATGG | 0.978 ± 0.043 |
| GGTTAGGAAG | 1.005 ± 0.0037 |
| GGTTAGGCGG | 0.954 ± 0.015 |
| GGTTAGGGGT | 1.08 ± 0.24 |
| GGTTATAATC | 0.969 ± 0.07 |
| GGTTATAATT | 1.004 ± 0.0011 |
| GGTTATACGA | 1.034 ± 0.0054 |
| GGTTATATGT | 1.02 ± 0.021 |
| GGTTATGAAT | 1 ± 0.015 |
| GGTTATGGTG | 1.02 ± 0.02 |
| GGTTATTATG | 0.978 ± 0.039 |
| GGTTATTGAG | 0.9799 ± 0.0044 |
| GGTTCAAGTT | 0.9816 ± 0.0095 |
